Measured values from paper PMC12681905.

Columns and labels:
[1] = molecular target: recombinant human LONP1 protein (human) (UniProt P36776); assay: SPR; Biacore T200, LONP1 covalently coupled to a CM5 chip; SOD2 from 10 to 0.3125 uM in PBS/0.01 % Tween 20, 20 ul/min; association 240 s, dissociation 420 s
[2] = molecular target: recombinant human LONP1 protein (human) (UniProt P36776); assay: BLI; Octet R8, biotinylated LONP1 on streptavidin 2.0 biosensor; SOD2 at 0, 2.5, 5 and 10 uM for 90 s; steady-state fit
[3] = molecular target: recombinant human LONP1 protein (human) (UniProt P36776); assay: MST; Monolith NT.115; 86 nM NHS-labelled LONP1, SOD2 from 2.85 to 22.8 uM, incubated 10 min; 80 % LED power, 80 % MST

**Q.** For “recombinant human SOD2 protein (from UniProt P04179 25-222) (enzyme)”, which Kd [1] is on record?
**A.** 0.22 µM

**Q.** And the Kd [2]?
**A.** 13.4 µM

**Q.** What about the Kd [3] of the same substance?
**A.** 1.56 µM
